In this experiment the target is T1, His6-Arc (Activity-regulated cytoskeleton-associated protein, full length) (mouse), Q9WV31.
T1 chain: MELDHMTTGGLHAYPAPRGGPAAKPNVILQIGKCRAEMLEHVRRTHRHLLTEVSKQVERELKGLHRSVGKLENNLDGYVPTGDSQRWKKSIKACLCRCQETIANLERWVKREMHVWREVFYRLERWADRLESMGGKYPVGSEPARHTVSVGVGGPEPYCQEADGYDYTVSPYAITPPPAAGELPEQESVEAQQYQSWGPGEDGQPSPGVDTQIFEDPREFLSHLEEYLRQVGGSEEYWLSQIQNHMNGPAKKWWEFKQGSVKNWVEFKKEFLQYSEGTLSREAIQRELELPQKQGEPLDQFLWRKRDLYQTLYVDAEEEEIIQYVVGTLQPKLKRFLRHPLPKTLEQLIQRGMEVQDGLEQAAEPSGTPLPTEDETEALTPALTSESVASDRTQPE
The experiment in a line: SEC + other: sucrose density gradient centrifugation. Particulars: remark: other sources report otherwise.

B1: His6-Arc (Activity-regulated cytoskeleton-associated protein, full length), Q9WV31 1-396 (natural protein)
chain: T1 chain
As to B1, the stoichiometry N was 2.

Values taken from publication PMC4398645.
